Source: patent publication US20030157688A1 (Scripps Research, published 2003)

T1: wild-type adenovirus type 5 (Ad5) fiber protein (human adenovirus type 5, UniProt P11818 1-581)
T1 construct: also called type 5 fiber protein; recombinant Ad5 fiber
T1 sequence: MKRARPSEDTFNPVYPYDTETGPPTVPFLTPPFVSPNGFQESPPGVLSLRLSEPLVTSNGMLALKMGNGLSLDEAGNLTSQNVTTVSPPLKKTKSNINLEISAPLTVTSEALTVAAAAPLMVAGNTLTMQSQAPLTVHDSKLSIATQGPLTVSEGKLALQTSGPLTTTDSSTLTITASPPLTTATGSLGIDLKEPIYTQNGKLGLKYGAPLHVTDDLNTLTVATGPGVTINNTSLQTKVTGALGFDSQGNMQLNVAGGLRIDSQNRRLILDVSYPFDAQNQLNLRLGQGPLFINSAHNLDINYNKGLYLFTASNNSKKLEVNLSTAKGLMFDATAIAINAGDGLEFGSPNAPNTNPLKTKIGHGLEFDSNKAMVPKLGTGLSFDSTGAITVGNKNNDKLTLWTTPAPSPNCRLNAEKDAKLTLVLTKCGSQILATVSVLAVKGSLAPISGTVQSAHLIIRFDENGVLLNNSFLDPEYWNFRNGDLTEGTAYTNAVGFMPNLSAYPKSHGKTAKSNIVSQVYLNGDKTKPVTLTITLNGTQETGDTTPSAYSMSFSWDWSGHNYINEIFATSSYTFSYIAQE

B1: chimeric 5T3H fiber protein (Ad5 fiber tail and shaft with the Ad3 fiber knob) (other)
chain: MKRARPSEDTFNPVYPYDTETGPPTVPFLTPPFVSPNGFQESPPGVLSLRLSEPLVTSNGMLALKMGNGLSLDEAGNLTSQNVTTVSPPLKKTKSNINLEISAPLTVTSEALTVAAAAPLMVAGNTLTMQSQAPLTVHDSKLSIATQGPLTVSEGKLALQTSGPLTTTDSSTLTITASPPLTTATGSLGIDLKEPIYTQNGKLGLKYGAPLHVTDDLNTLTVATGPGVTINNTSLQTKVTGALGFDSQGNMQLNVAGGLRIDSQNRRLILDVSYPFDAQNQLNLRLGQGPLFINSAHNLDINYNKGLYLFTASNNSKKLEVNLSTAKGLMFDATAIAINAGDGLEFGSPNAPNTNPLKTKIGHGLEFDSNKAMVPKLGTGLSFDSTGAITVGNKNNDKLTLWTGPKPEANCIIEYGKQNPDSKLTLILVKNGGIVNGYVTLMGASDYVNTLFKNKNVSINVELYFDATGHILPDSSSLKTDLELKYKQTADFSARGFMPSTTAYPFVLPNAGTHNENYIFGQCYYKASDGALFPLEVTVMLNKRLPDSRTSYVMTFLWSLNAGLAPETTQATLITSPFTFSYIREDD

Key:
Ad3 receptor = assay: cell-based or functional assay
[1] = molecular target: B1; assay: fiber-deleted vector grown in 644 cells
[2] = molecular target: T1, wild-type adenovirus type 5 (Ad5) fiber …; assay: Western blot of particles purified from 633 cells

Binder | infection of EBV-transformed lymphoblastoid cell lines (X-gal stained cells) (Ad3 receptor) [fold] | binding result [1] | binding result [2]
B1 | ≥ 10 |  | 
Ad5 penton base protein (in the capsid of Ad5.βgal.ΔF / Ad5 vector particles) (other, The assays used whole virions; also called fiberless adenovector (penton base at the vertices)) MRRAAMYEEGPPPSYESVVSAAPVAAALGSPFDAPLDPPFVPPRYLRPTGGRNSIRYSELAPLFDTTRVYLVDNKSTDVASLNYQNDHSNFLTTVIQNNDYSPGEASTQTINLDDRSHWGGDLKTILHTNMPNVNEFMFTNKFKARVMVSRLPTKDNQVELKYEWVEFTLPEGNYSETMTIDLMNNAIVEHYLKVGRQNGVLESDIGVKFDTRNFRLGFDPVTGLVMPGVYTNEAFHPDIILLPGCGVDFTHSRLSNLLGIRKRQPFQEGFRITYDDLEGGNIPALLDVDAYQASLKDDTEQGGGGAGGSNSSGSGAEENSNAAAAAMQPVEDMNDHAIRGDTFATRAEEKRAEAEAAAEAAAPAAQPEVEKPQKKPVIKPLTEDSKKRSYNLISNDSTFTQYRSWYLAYNYGDPQTGIRSWTLLCTPDVTCGSEQVYWSLPDMMQDPVTFRSTRQISNFPVVGAELLPVHSKSFYNDQAVYSQLIRQFTSLTHVFNRFPENQILARPPAPTITTVSENVPALTDHGTLPLRNSIGGVQRVTITDARRRTCPYVYKALGIVSPRVLSSRTF |  | binds | binds
